Measurements taken from US20180245061A1, “Modified Heterocyclase” (THE UNIVERSITY COURT OF THE UNIVERSITY OF ABERDEEN, priority 2014, published 2018).
Where no end group is shown, it is not given here.

B1: LynD fusion: residues 21-38 of the PatE leader and an eleven residue long linker added to the N-terminus of LynD (SEQ ID NO: 39) (protein)
chain: MSHHHHHHDYDENLYFQGSQLSSQLAELSEEALGDAGAGAGAGAGAGAMQSTPLLQIQPHFHVEVIEPKQVYLLGEQANHALTGQLYCQILPLLNGQYTLEQIVEKLDGEVPPEYIDYVLERLAEKGYLTEAAPELSSEVAAFWSELGIAPPVAAEALRQPVTLTPVGNISEVTVAALTTALRDIGISVQTPTEAGSPTALNVVLTDDYLQPELAKINKQALESQQTWLLVKPVGSVLWLGPVFVPGKTGCWDCLAHRLRGNREVEASVLRQKQAQQQRNGQSGSVIGCLPTARATLPSTLQTGLQFAATEIAKWIVKYHVNATAPGTVFFPTLDGKIITLNHSILDLKSHILIKRSQCPTCGDPKILQHRGFEPLKLESRPKQFTSDGGHRGTTPEQTVQKYQHLISPVTGVVTELVRITDPANPLVHTYRAGHSFGSATSLRGLRNTLKHKSSGKGKTDSQSKASGLCEAVERYSGIFQGDEPRKRATLAELGDLAIHPEQCLCFSDGQYANRETLNEQATVAHDWIPQRFDASQAIEWTPVWSLTEQTHKYLPTALCYYHYPLPPEHRFARGDSNGNAAGNTLEEAILQGFMELVERDGVALWWYNRLRRPAVDLGSFNEPYFVQLQQFYRENDRDLWVLDLTADLGIPAFAGVSNRKTGSSERLILGFGAHLDPTIAILRAVTEVNQIGLELDKVPDENLKSDATDWLITEKLADHPYLLPDTTQPLKTAQDYPKRWSDDIYTDVMTCVNIAQQAGLETLVIDQTRPDIGLNVVKVTVPGMRHFWSRFGEGRLYDVPVKLGWLDEPLTEAQMNPTPMPF
modifications: Modified heterocyclase
B2: MicD-R16-GLEAS-5GA: fused-MicD: leader from R16 extended by GLEAS prior to the GA linker (SEQ ID NO: 43) (protein)
chain: MSHHHHHHDYDENLYFQGSRLTAGQLSSQLAELSEEALGDAGLEASGAGAGAGAGAKLMQSTPLLQIQPHFHVEVIEPKQVYLLGEQANYALTGQLYCQILPLLDGQHSREQIVEKLDGEVPSEYIDYVLDRLAEKGYLTEAAPELSSEVAAFWSELGIAPPVAAEALRQSVTLTPVGNISEVTVAALTTALRDIGISVQTPTEAGSPTALNVVLTDDYLQPELAKINKQALESQQTWLLVKPVGSVLWLGPVFVPGKTGCWDCLAHRLRGNREVEASVLQQKQAQQQRNGQSGSVIGCLPTARATLPSTLQTGLQFAATEIAKWIVKHHVKATAPGTVFFPTLDGKIITFNHTVIDLKSHVLVRRSQCPSCGDRQILHRQGFEPVKLVSRRKHFTHDGGHRAFTPEQTVQKYQHLVSPITGVVTELVRLTDPANPLVHTYKAGHAFGSATTLRGLRNTLKYKSSGKGKTDIQSRASGLCEAIERYSGIFQGDEPRKRATLAELGDLALHPESLLYFSNTQYANREELNAQGSAAAYRWIPNRFDVSQAIDWTPVWSLTEQKHKYVPTAFCYYGYPLPEEQRFCKADSNGNAAGNTLEEAILQGFLELVERDSIAMWWYNRIRRPAVDLSTFDEPYFVDLQQFYQQQNRELWVLDVTADLGIPAFAGFSRRTVGTSERISIGFGAHLDPTIAILRALTEVSQVGLELDKIPDDKLDGESKDWMLNVTVENHPWLAPDPSVPMKTASDYPKRWSDDIHTDVMNCVKTAQTAGLEVMVLDQTRPDIGLNVVKVIIPGMRTFWTRFGQGRLYDIPVKLGWLDAPLAEEELNQTNIPF
modifications: Modified heterocyclase MicroD_R16_GLEAS_5GA
B3: TruD: cyanobactin heterocyclase from the trunkamide pathway, SEQ ID NO: 3 (protein)
chain: MQPTALQIKPHFHVEIIEPKQVYLLGEQGNHALTGQLYCQILPFLNGEYTREQIVEKLDGQVPEEYIDFVLSRLVEKGYLTEVAPELSLEVAAFWSELGIAPSVVAEGLKQPVTVTTAGKGIREGIVANLAAALEEAGIQVSDPRDPKAPKAGDSTAQLQVVLTDDYLQPELAAINKEALERQQPWLLVKPVGSILWLGPLFVPGETGCWHCLAQRLQGNREVEASVLQQKRALQERNGQNKNGAVSCLPTARATLPSTLQTGLQWAATEIAKWMVKRHLNAIAPGTARFPTLAGKIFTFNQTTLELKAHPLSRRPQCPTCGDRETLQRRGFEPLKLESRPKHFTSDGGHRAMTPEQTVQKYQHLIGPITGVVTELVRISDPANPLVHTYRAGHSFGSATSLRGLRNVLRHKSSGKGKTDSQSRASGLCEAIERYSGIFQGDEPRKRATLAELGDLAIHPEQCLHFSDRQYDNRESSNERATVTHDWIPQRFDASKAHDWTPVWSLTEQTHKYLPTALCYYRYPFPPEHRFCRSDSNGNAAGNTLEEAILQGFMELVERDSVCLWWYNRVSRPAVDLSSFDEPYFLQLQQFYQTQNRDLWVLDLTADLGIPAFVGVSNRKAGSSERIILGFGAHLDPTVAILRALTEVNQIGLELDKVSDESLKNDATDWLVNATLAASPYLVADASQPLKTAKDYPRRWSDDIYTDVMTCVEIAKQAGLETLVLDQTRPDIGLNVVKVIVPGMRFWSRFGSGRLYDVPVKLGWREQPLAEAQMNPTPMPF
modifications: Prochloron sp. 06037A

Experiments:
LynD = assay: Trans activation of LynD by exogenous leader peptide (turnover of test peptide ITACITFCAYDG); type: biochemical, Lyngbya sp.; settings: for acceleration of turnover of the test peptide by LynD: 5.5 μM leader peptide in trans, 5 μM LynD, 100 μM ITACITFCAYDG; for heterocycles observed in test peptide with LynD plus leader in trans: overnight incubation
Method: (§1) For all heterocyclization reactions, […] PatE′ (and variants,) was incubated with 2 μM enzyme in 150 mM NaCl, 10 mM HEPES pH 7.4, 1 mM TCEP, 5 mM ATP and 5 mM MgCl2 for 16 h at 37° C. Samples were analyzed by ESI or MALDI MS (LCT, Micromass or 4800 MALDI TOF/TOF Analyzer, ABSciex). For cis trans activation studies, 100 μM ITACITFCAYDG synthetic test peptide (Peptide Protein Research Ltd) was reacted with 5 μM heterocyclase enzyme in the presence and absence of 5.5 μM LAELSEEAL synthetic peptide, or 5.5 μM full-length PatE′4 leader peptide. The reaction was carried out in 150 mM NaCl, 10 mM HEPES pH 7.4, 1 mM TCEP, 5 mM ATP and 5 mM MgCl2 for 16 h at 37° C. and analyzed as above. Synthetic peptides were purchased from Peptide Protein Research Ltd.
To assess the relative rates of heterocyclization under various conditions, heterocyclization reactions were monitored at regular intervals using MALDI TOF MS. In each case, reactions of PatE′ or ITACITFCAYDG synthetic peptide were prepared as described and incubated at 37° C. prior to addition of LynD allowing a 0 time-point to be recorded. Time points for each reaction were recorded as follows: For PatE′ with LynD (standard conditions), PatE′ with LynD in the presence of α-β-methelene ATP, and ITACITFCAYDG with LynD fusion, the reaction was monitored after 1, 5, 10, 15, 20, 30, 45, 60, 90, 120 and 180 minutes; For ITACITFCAYDG with LynD in the absence, and presence of either minimal leader LAELSEEAL peptide, or full length PatE′4 leader peptide, the reaction was monitored after 15, 30, 60, 120, 240 and 1440 minutes. Reactions were set up in triplicate, and each sample was analyzed by MALDI TOF MS in triplicate (9 spectra recorded in total for each reaction at each time point). For each time point, the total ion count for each species (0, 1 and 2 heterocycles) was recorded, averaged and the percentage of each species was calculated. The rate of each reaction relative to the wild-type reaction (PatE′+LynD) was determined. LC-MS of reaction mixtures was performed on a Waters LC-MS system (LCT mass spectrometer and 2795 HPLC) using a Waters MassPrep column (2.1×10 mm). Solvent B was 0.1% formic acid and Solvent A was MeCN containing 0.1% formic acid. Gradient 0-0.5 min 98% B, 0.5-2.5 min linear to 2% B, 2.5-4.5 min 2% B, 4.5-4.6 min linear to 98% B, […] 98% B at 0.05 ml min−1. The following conditions were used on the mass spectrometer: ESI +ve, capillary voltage 3.5 kV, cone voltage 40 V, mass range 500-2500 m/z, RF lens 500. The spectra were combined across the eluted protein peak and the charged ion series processed using Water's MaxEnt algorithm to give protein mass, using peak width at half height on the strongest peak in the ion envelope. […]

[1] = tested on: ITACITFCAYDG synthetic test peptide; assay: Heterocyclization of leaderless core/test peptide ITACITFCAYDG (LCMS, MALDI TOF MS time course); type: biochemical; settings: for heterocycles formed in core peptide ITACITFCAYDG: no leader
Method: After 16 h core peptide incubated with either TruD or LynD only 1 heterocycle is formed. In contrast when incubated with LynD fusion, the heterocyclization reaction is nearly complete—the sample containing predominantly 2 heterocycles after just 2 h. PatE′ and LynD reaction after 2 h is shown as a reference.
as §1, with “Synthetic peptides were purchased from Peptide Protein Research Ltd.” left out
To assess the relative rates of heterocyclization under various conditions, heterocyclization reactions were monitored at regular intervals using MALDI TOF MS. In each case, reactions of PatE′ or ITACITFCAYDG synthetic peptide were prepared as described and incubated at 37° C. prior to addition of LynD allowing a 0 time-point to be recorded. Time points for each reaction were recorded as follows: For PatE′ with LynD (standard conditions), PatE′ with LynD in the presence of α-β-methelene ATP, and ITACITFCAYDG with LynD fusion, the reaction was monitored after 1, 5, 10, 15, 20, 30, 45, 60, 90, 120 and 180 minutes; For ITACITFCAYDG with LynD in the absence, and presence of either minimal leader LAELSEEAL peptide, or full length PatE′4 leader peptide, the reaction was monitored after 15, 30, 60, 120, 240 and 1440 minutes. Reactions were set up in triplicate, and each sample was analyzed by MALDI TOF MS in triplicate (9 spectra recorded in total for each reaction at each time point). […] The rate of each reaction relative to the wild-type reaction (PatE′+LynD) was determined. […]

ITACITACAYDGE = assay: Heterocyclization of leaderless substrate peptide ITACITACAYDGE by fused-MicD/PatD enzymes (LC-ESI-MS, MALDI-TOF-MS, HPLC-ESI-MS); type: biochemical; settings: 20-30 μM enzyme, 100-110 μM peptide, 5 mM ATP, 5 mM MgCl2, 27° C., 16 h
Method: The Reaction was performed in 100 mM Tris pH 8.0 supplemented with 150 mM NaCl, 5 mM ATP and 5 mM MgCl2 and contained 20 μM enzyme and 100 μM peptide. The mixture was incubated at 27° C. for 16 h. The unprocessed substrate has a molecular weight of 1329.5 Da.
Reaction was performed in 50 mM Bicine pH 9.0 supplemented with 150 mM NaCl, 5 mM ATP and 5 mM MgCl2 and contained 30 μM enzyme and 110 μM peptide. The mixture was incubated at 27° C. for 16 h. The unprocessed substrate has a molecular weight of 1219.5 Da.
Each reaction contained 100 mM Tris pH 8.0, 150 mM NaCl, 5 mM ATP and 5 mM MgCl2, 20 μM of the respective enzyme and 100 μM substrate peptide, and was incubated at 27° C. for 16 h. The unprocessed substrate has a molecular weight of 1329.5 Da.
Reaction was performed in 50 mM Bicine pH 9.0 supplemented with 150 mM NaCl, 5 mM ATP and 5 mM MgCl2 and contained 30 μM enzyme and 110 μM peptide. The mixture was incubated at 27° C. for 16 h. The unprocessed substrate has a molecular weight of 1329.5 Da.
Only 1 peak (9.254 min) indicates the reaction product is only one species. […] Multiple peaks of low intensity compared with m/z=1258.5 can be attributed to noise. Product was purified from the enzyme and ATP using size exclusion chromatography (Superdex 30, GE Healthcare) and exchanged into 50 mM Bicine pH 9.0, 500 mM NaCl and 5% DMSO.

| Molecule | acceleration of turnover of the test peptide by LynD (LynD) [fold] | heterocycles observed in test peptide with LynD plus leader in trans (LynD) | other results |
| --- | --- | --- | --- |
| full-length PatE leader: full-length leader peptide from trypsin digestion of quadruple mutant PatE′4 (D2Y, K3E, K4E, R16E) | 6.7 | both heterocycles are observed | – |
| LAELSEEAL (ends and bridges not checked) [minimal leader, residues 26 to 34 of PatE] | 5.0 | both heterocycles are observed | – |
| B1 | – | – | heterocycles formed in core peptide ITACITFCAYDG ([1]; after 2 h, LCMS): 2; rate of processing both cysteines in the test peptide ([1]; compared with native LynD on full length PatE′ substrate): comparable to the full length PatE′ substrate |
| B2 | – | – | heterocyclized species produced from ITACITACAYDGE (ITACITACAYDGE): no effect on heterocyclization |
| B3 | – | – | heterocycles formed in core peptide ITACITFCAYDG ([1]; after 16 h / overnight, 5 μM enzyme, 100 μM peptide, 37° C.): 1 |
